Test results: patent publication US20180155451A1 (published 2018)

T1: FcγRIIb (human, UniProt P31994 43-217)
T1 construct: extracellular domain; Soluble extracellular domain with C-terminal His tag, expressed in FreeStyle293 cells; also called FcgRIIb; 2b; not shown: C-terminal His tag
T1 sequence (looked up): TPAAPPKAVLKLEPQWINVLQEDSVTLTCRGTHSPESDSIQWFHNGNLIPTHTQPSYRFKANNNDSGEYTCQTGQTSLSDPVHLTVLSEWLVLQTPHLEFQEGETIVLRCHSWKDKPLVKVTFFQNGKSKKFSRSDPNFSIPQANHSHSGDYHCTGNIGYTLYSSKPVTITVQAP

T2: FcγRIIa H (human, UniProt P12318 34-217)
T2 construct: extracellular domain; Soluble extracellular domain with C-terminal His tag, expressed in FreeStyle293 cells; also called FcgRIIa H; 2aH; not shown: C-terminal His tag
T2 sequence (looked up): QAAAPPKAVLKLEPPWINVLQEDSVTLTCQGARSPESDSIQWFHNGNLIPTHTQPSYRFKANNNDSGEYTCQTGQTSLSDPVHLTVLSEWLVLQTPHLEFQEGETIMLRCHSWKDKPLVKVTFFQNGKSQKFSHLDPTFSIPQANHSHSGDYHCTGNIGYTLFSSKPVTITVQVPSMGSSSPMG


Key:
FcγRIIb = target: T1, FcγRIIb; test: SPR (Biacore), antibody captured, FcγR as analyte; relative to HeCon Ab
Procedure: (§1) The heterodimerized antibodies He Abs in which one of the H chains was introduced with an alteration were assayed for their binding activities to each activating FcγR and inhibitory FcγR according to the method described in Example 4. […] The activating FcγRs in FIGS. 26, 27, 28, and 29 are FcγRIa, FcγRIIa (R), FcγRIIa (H), and FcγRIIIa, respectively.
(§2) Analysis of interaction between objective antibody and the FcγR was carried out using Biacore T100 (GE Healthcare). HBS-EP+ (GE Healthcare) was used as the running buffer, and the measurement temperature was set to 25° C. Chips produced by immobilizing the antigen peptide by the amine coupling method to a Series S Sencor Chip CM5 (GE Healthcare), or alternatively, chips produced by allowing preliminarily biotinylated antigen peptides to interact with and immobilize onto a Series S Sensor Chip SA (certified) (GE Healthcare) were used. Antibodies of interest were captured onto an antigen peptide-immobilized chip, and allowed to interact to each FcγR diluted with running buffer. To regenerate and repeatedly use the chip, the antibodies captured on the chip were washed off by reacting 10 mM glycine-HCl, pH 1.5.

FcγRIIa H = target: T2, FcγRIIa H; test: as above
Procedure: as §1, §2

He/Con_2b (FcγRIIb) | He/Con_2aH (FcγRIIa H) | Binder
73.2 % of GpH7-A5/GpH7-B3/GpL16-k0 (=100) | 53.5 % of GpH7-A5/GpH7-B3/GpL16-k0 (=100) | GpH7-A5/GpH7-B3 variant P238_18N/GpL16-k0 (antibody, human IgG1, kappa, Heterodimerized anti-glypican-3 IgG1; alteration in the GpH7-B3 chain only; also called He Ab) heavy 1: not shown heavy 2: not shown light: DIVMTQSPLSLPVTPGEPASISCQASESLVHSNRNTYLHWYLQKPGQSPQLLIYKVSNRFSGVPDRFSGSGSGTDFTLKISRVEAEDVGVYYCSQNTHVPPTFGQGTKVEIERTVAAPSVFIFPPSDEQLKSGTASVVCLLNNFYPREAKVQWKVDNALQSGNSQESVTEQDSKDSTYSLSSTLTLSKADYEKHKVYACEVTHQGLSSPVTKSFNRGEC
180 % of GpH7-A5/GpH7-B3/GpL16-k0 (=100) | 15.2 % of GpH7-A5/GpH7-B3/GpL16-k0 (=100) | GpH7-A5/GpH7-B3 variant G237_18N/GpL16-k0 (antibody, human IgG1, kappa, Heterodimerized anti-glypican-3 IgG1; alteration in the GpH7-B3 chain only; also called He Ab) heavy 1: not shown heavy 2: not shown light: DIVMTQSPLSLPVTPGEPASISCQASESLVHSNRNTYLHWYLQKPGQSPQLLIYKVSNRFSGVPDRFSGSGSGTDFTLKISRVEAEDVGVYYCSQNTHVPPTFGQGTKVEIERTVAAPSVFIFPPSDEQLKSGTASVVCLLNNFYPREAKVQWKVDNALQSGNSQESVTEQDSKDSTYSLSSTLTLSKADYEKHKVYACEVTHQGLSSPVTKSFNRGEC
223 % of GpH7-A5/GpH7-B3/GpL16-k0 (=100) | 11.1 % of GpH7-A5/GpH7-B3/GpL16-k0 (=100) | GpH7-A5/GpH7-B3 variant G237_09D/GpL16-k0 (antibody, human IgG1, kappa, Heterodimerized anti-glypican-3 IgG1; alteration in the GpH7-B3 chain only; also called He Ab) heavy 1: not shown heavy 2: not shown light: DIVMTQSPLSLPVTPGEPASISCQASESLVHSNRNTYLHWYLQKPGQSPQLLIYKVSNRFSGVPDRFSGSGSGTDFTLKISRVEAEDVGVYYCSQNTHVPPTFGQGTKVEIERTVAAPSVFIFPPSDEQLKSGTASVVCLLNNFYPREAKVQWKVDNALQSGNSQESVTEQDSKDSTYSLSSTLTLSKADYEKHKVYACEVTHQGLSSPVTKSFNRGEC
149 % of GpH7-A5/GpH7-B3/GpL16-k0 (=100) | 41.4 % of GpH7-A5/GpH7-B3/GpL16-k0 (=100) | GpH7-A5/GpH7-B3 variant G237_04F/GpL16-k0 (antibody, human IgG1, kappa, Heterodimerized anti-glypican-3 IgG1; alteration in the GpH7-B3 chain only; also called He Ab) heavy 1: not shown heavy 2: not shown light: DIVMTQSPLSLPVTPGEPASISCQASESLVHSNRNTYLHWYLQKPGQSPQLLIYKVSNRFSGVPDRFSGSGSGTDFTLKISRVEAEDVGVYYCSQNTHVPPTFGQGTKVEIERTVAAPSVFIFPPSDEQLKSGTASVVCLLNNFYPREAKVQWKVDNALQSGNSQESVTEQDSKDSTYSLSSTLTLSKADYEKHKVYACEVTHQGLSSPVTKSFNRGEC
221 % of GpH7-A5/GpH7-B3/GpL16-k0 (=100) | 87.5 % of GpH7-A5/GpH7-B3/GpL16-k0 (=100) | GpH7-A5/GpH7-B3 variant P238_09D/GpL16-k0 (antibody, human IgG1, kappa, Heterodimerized anti-glypican-3 IgG1; alteration in the GpH7-B3 chain only; also called He Ab) heavy 1: not shown heavy 2: not shown light: DIVMTQSPLSLPVTPGEPASISCQASESLVHSNRNTYLHWYLQKPGQSPQLLIYKVSNRFSGVPDRFSGSGSGTDFTLKISRVEAEDVGVYYCSQNTHVPPTFGQGTKVEIERTVAAPSVFIFPPSDEQLKSGTASVVCLLNNFYPREAKVQWKVDNALQSGNSQESVTEQDSKDSTYSLSSTLTLSKADYEKHKVYACEVTHQGLSSPVTKSFNRGEC
204 % of GpH7-A5/GpH7-B3/GpL16-k0 (=100) | 84.6 % of GpH7-A5/GpH7-B3/GpL16-k0 (=100) | GpH7-A5/GpH7-B3 variant P238_08L/GpL16-k0 (antibody, human IgG1, kappa, Heterodimerized anti-glypican-3 IgG1; alteration in the GpH7-B3 chain only; also called He Ab) heavy 1: not shown heavy 2: not shown light: DIVMTQSPLSLPVTPGEPASISCQASESLVHSNRNTYLHWYLQKPGQSPQLLIYKVSNRFSGVPDRFSGSGSGTDFTLKISRVEAEDVGVYYCSQNTHVPPTFGQGTKVEIERTVAAPSVFIFPPSDEQLKSGTASVVCLLNNFYPREAKVQWKVDNALQSGNSQESVTEQDSKDSTYSLSSTLTLSKADYEKHKVYACEVTHQGLSSPVTKSFNRGEC
118 % of GpH7-A5/GpH7-B3/GpL16-k0 (=100) | 88.3 % of GpH7-A5/GpH7-B3/GpL16-k0 (=100) | GpH7-A5/GpH7-B3 variant L234_10E/GpL16-k0 (antibody, human IgG1, kappa, Heterodimerized anti-glypican-3 IgG1; alteration in the GpH7-B3 chain only; also called He Ab) heavy 1: not shown heavy 2: not shown light: DIVMTQSPLSLPVTPGEPASISCQASESLVHSNRNTYLHWYLQKPGQSPQLLIYKVSNRFSGVPDRFSGSGSGTDFTLKISRVEAEDVGVYYCSQNTHVPPTFGQGTKVEIERTVAAPSVFIFPPSDEQLKSGTASVVCLLNNFYPREAKVQWKVDNALQSGNSQESVTEQDSKDSTYSLSSTLTLSKADYEKHKVYACEVTHQGLSSPVTKSFNRGEC
147 % of GpH7-A5/GpH7-B3/GpL16-k0 (=100) | 118 % of GpH7-A5/GpH7-B3/GpL16-k0 (=100) | GpH7-A5/GpH7-B3 variant L235_20W/GpL16-k0 (antibody, human IgG1, kappa, Heterodimerized anti-glypican-3 IgG1; alteration in the GpH7-B3 chain only; also called He Ab) heavy 1: not shown heavy 2: not shown light: DIVMTQSPLSLPVTPGEPASISCQASESLVHSNRNTYLHWYLQKPGQSPQLLIYKVSNRFSGVPDRFSGSGSGTDFTLKISRVEAEDVGVYYCSQNTHVPPTFGQGTKVEIERTVAAPSVFIFPPSDEQLKSGTASVVCLLNNFYPREAKVQWKVDNALQSGNSQESVTEQDSKDSTYSLSSTLTLSKADYEKHKVYACEVTHQGLSSPVTKSFNRGEC
115 % of GpH7-A5/GpH7-B3/GpL16-k0 (=100) | 45.9 % of GpH7-A5/GpH7-B3/GpL16-k0 (=100) | GpH7-A5/GpH7-B3 variant P238_16H/GpL16-k0 (antibody, human IgG1, kappa, Heterodimerized anti-glypican-3 IgG1; alteration in the GpH7-B3 chain only; also called He Ab) heavy 1: not shown heavy 2: not shown light: DIVMTQSPLSLPVTPGEPASISCQASESLVHSNRNTYLHWYLQKPGQSPQLLIYKVSNRFSGVPDRFSGSGSGTDFTLKISRVEAEDVGVYYCSQNTHVPPTFGQGTKVEIERTVAAPSVFIFPPSDEQLKSGTASVVCLLNNFYPREAKVQWKVDNALQSGNSQESVTEQDSKDSTYSLSSTLTLSKADYEKHKVYACEVTHQGLSSPVTKSFNRGEC
